Assay results taken from the supplement of paper PMC9170038.

Tested on: MS2 coat protein
Test: apparent KD of MS2 coat protein; designed switch direction (-1 OFF switch, 1 ON switch): -1; higher = weaker reporter binding
In short: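 An oligonucleotide input, 200 uM small-molecule ligand, or no input was present during titration of SNAP-549-labelled MS2 coat protein, which was doubled from 0.7 or 1.5 nM to 3 µM. Designed RNA switches had been transcribed on Illumina chips by stalled E. coli RNA polymerase. Apparent KD per design is the median over clusters of curves fitted to normalised cluster fluorescence.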

[1] = input ligand: microRNA oligo, concentration not stated
[2] = Eterna round: R95, input ligand: microRNA oligo, concentration not stated
[3] = Eterna round: R95, input ligand: FMN 200 uM
[4] = Eterna round: R95, input ligand: none

| Sequence | apparent KD of MS2 coat protein (input ligand: FMN 200 uM) [nM] | apparent KD of MS2 coat protein (input ligand: none) [nM] | apparent KD of MS2 coat protein [1] [nM] | also measured |
| --- | --- | --- | --- | --- |
| GGGAGCAGACGGAGAUCCAACAUGAGGAUCACCCAUGUCUCCCAAGCUUUUUGCUUGUCUUAUCCUCCUCUGUUUCC [Design #9] (Eterna round: R97, puzzle: Sensor, turn-off variant 1) | 17.2 | 17.6 | – | – |
| UAUAUAUAGUAAGGAUAUGUAUUAAUUUUAUUAACAGAAGGUACUGACAUGAGGAUCACCCAUGUUUUAGUGUGGGCAUGUAGA [JMF's solution 90] (Eterna round: R96, puzzle: Exclusion NG 1) | – | – | 69.4 | – |
| UUAGUGUUAGGAUAUAAUCAUAUAAGCUGUAAGGUGUAUGAUUAGAAGGGACAUGAGGAUCACCCAUGUCGUGA [Eternabot (L1) Solution 94] (Eterna round: R97, puzzle: Exclusion 4) | 23.1 | 20.1 | – | – |
| AAUACAAGCUAUUGAUCCCACAUGAGGAUCACCCAUGUAGGAGGCGGUGACACCUCCUUUACGAUAGCUCGUCUUAU [Sensor-V1 #53] (Eterna round: R97, puzzle: Sensor, turn-off variant 1) | 213 | 219 | – | – |
| AAUGAUUGACGAGGAUAUUGUGUUAGAUCACGACGAGAAGGCGUCUGUCACAUGAGGAUCACCCAUGUGAGCCUGGUGGAUGGG [Ex NG1 #79] (Eterna round: R96, puzzle: Exclusion NG 1) | 41.7 | 26.7 | 22.3 | – |
| CUGUGCACGCUGCGAUCCUACAUGAGGAUCACCCAUGUGGUCUGGUGGCGUGGGUCACCGGACUUGGCUCGUCUUGC [salish99_S_TOV1_R5_071] (Eterna round: R97, puzzle: Sensor, turn-off variant 1) | 31.4 | 31.6 | – | – |
| ACAUUGCUAGGAUAUCGCGGUAAGGACAUGAGGAUCACCCAUGUGGUGCCGUGGGAGGCCCGAGAAGGAGCGACCU [Maveonle] (puzzle: Exclusion 5) | – | – | – | apparent KD of MS2 coat protein [2]: 18.1 nM |
| AGCGCCAUCGUGAGAUGGCGUAUUACAUGAGGAUCACCCAUGUAGGAUAUCGAUUGCUUUGCAGUCGAGAAGGGCAUGUCCAAG [JL ENG3 3.80 Mod I] (Eterna round: R96, puzzle: Exclusion NG 3) | 45.4 | 35 | 37.8 | – |
| CAUGAGGGAGGAUAUACAUGAGGAUCACCCAUGUAACUGGGAGUAGUUCUUCGUAGUCGUAGAAGGCCUGAGGG [Eternabot (L1) Solution 14] (Eterna round: R97, puzzle: Exclusion 3) | 242 | 723 | – | – |
| AGCUGUGGCCGAGGAUAUCUACCUUCAAUAACCGAAAUAUAAUCGGACAUGAGGAUCACCCAUGUAGAGAAGGCGGUCUCAGCA [Eli eng2 - 086] (Eterna round: R96, puzzle: Exclusion NG 2) | – | – | 10.9 | – |
| GCGCAGUCAGGAUAUGCCGCUUGCGAUCACCGUUGGCAAAGGCAGAAGGGACAUGAGGAUCACCCAUGUGGCGC [e4e Mirror Pins #3] (puzzle: Exclusion 4) | – | – | – | apparent KD of MS2 coat protein [2]: 18.1 nM |
| UUAAAUCAUGUAGGAUAUGCGUGGGAAAACUAUGCAGAAGGACAUGAGGAUCACCCAUGUGCUUCCGUCUGAGAACAGACGGUA [Mat - Exclusion NG 1 - Mod of JL - D15] (Eterna round: R96, puzzle: Exclusion NG 1) | 226 | 87.8 | 76.1 | – |
| GACGCUGACCGAGGAUAUACAAUAAAACAACAAACACCUCGUGUCAGAACAUGAGGAUCACCCAUGUAGAAGGCGGCAGGUCUA [Teateus] (Eterna round: R96, puzzle: Exclusion NG 2) | – | – | 31.6 | – |
| GUUGUAUGAGGAUAUACAUGAGGAUCACCCAUGUGUGUUGUGAACGACGUACGUUUAUGUAGAAGGCGUGCGGC [-24.9, -21.8 kcal, 24% A] (Eterna round: R97, puzzle: Exclusion 3) | 18.2 | 17.9 | – | – |
| ACGCCACAUGAGGAUCACCCAUGUGAGGAUAUGGCCUGUUUGGCGUGUGCUGGCUCUGUCAGAAGGCGCGUGGG [salish99_ex1_r4_039] (Eterna round: R97, puzzle: Exclusion 1) | 45.4 | 42.3 | – | – |
| AAAAUGUAAGGAUAUAGCCGGAACAAAGGGUCAAUAACCGGCUAGAAGGUACAUGAGGAUCACCCAUGUAAGAA [Excls4-V] (puzzle: Exclusion 4) | – | – | – | apparent KD of MS2 coat protein [3]: 19.4 nM; apparent KD of MS2 coat protein [2]: 13.3 nM; apparent KD of MS2 coat protein [4]: 15.8 nM |
| UGGGUCACAGGAUAUACAUGAGGAUCACCCAUGUCGUAUUUCGUGGCGGAGAGCUCGAGUAGAAGGGUGCAUCC [Malarala] (Eterna round: R96, puzzle: Exclusion 3) | 297 | 148 | 58.9 | – |
| GGACCGUGAGGAUAUAGAGGUCGCGUCAUAGGGCGUGGUUACUAGAAGGCACAUGAGGAUCACCCAUGUUCAUC [Eternabot (L1) Solution 7] (Eterna round: R97, puzzle: Exclusion 4) | 50.4 | 19.7 | – | – |
| GGGUGUGCUAAGGAUAUCGGACCAUCGGGUAACUGAGAAGGUAGCACAUGAGGAUCACCCAUGUGUAACUUGAU [EX6 B.12] (Eterna round: R97, puzzle: Exclusion 6) | 159 | 16 | – | – |
| CUCUAGUCAGGAUAUUAGUUGCCACCUGGACACAGGCGGCAUGAGAAGGGACUUGAGGAUCACCCAAGUAAAAG [Quaesbe] (Eterna round: R97, puzzle: Exclusion 4) | 384 | 758 | – | – |
| AACGACGGAGGAUAUACACCCUGGGACUCAUUAUCCCUUAGACAUGAGGAUCACCCAUGUAGAAGGCCGAACAC [EX2 B.3] (Eterna round: R97, puzzle: Exclusion 2) | 174 | 29.8 | – | – |
| UCGUGGUAAAUCAGAAGUUUCCUGAGCGGAGGAACUUUGACAUGAGGAUCACCCAUGUUGCUUUUUGCUCAUCUUAA [JR_SV3TOV2_Sub043] (puzzle: Sensor v3, turn-off variant 2) | – | – | – | apparent KD of MS2 coat protein [3]: 15.3 nM; apparent KD of MS2 coat protein [2]: 41.8 nM; apparent KD of MS2 coat protein [4]: 12.9 nM |
| CUAAAUCAUGUAGGAUAUGCGUGGCAAAGCUAUGCAGAAGGACAUGAGGAUCACCCAUGUCAUUCCGUCUGAGAACAGACGGGA [Mat - Exclusion NG 1 - Mod of JL - D51] (Eterna round: R96, puzzle: Exclusion NG 1) | 172 | 22.1 | 17.1 | – |
| UAACAGUAAGGAUAUCCAGAUCCAGACAUGAGGAUCACCCAUGUCAUAUACCUUUGACACGGAGAAGGUACGAAAA [EX5 A.4] (Eterna round: R97, puzzle: Exclusion 5) | 52.3 | 52.2 | – | – |
| UCACGGGAUUGAGGAUAUAUAUUAAUUUUUACAAUAGAAGGCAAAUUGUUAGUUUUUUCACUUUACAUGAGGAUCACCCAUGUU [JR_ExcBG1_Sub080] (Eterna round: R96, puzzle: Exclusion NG 1) | – | – | 19.6 | – |
| GAAAACGAAGAGGAUAUAUGAUAUCAAAGCUUCAUAGAAGGCUUCACAUGAGGAUCACCCAUGUGAUCUUCAAU [Mat - Exclusion 6 - JL Mod - D23] (Eterna round: R97, puzzle: Exclusion 6) | 244 | 41.6 | – | – |
